In patent US20140309172:

What was measured:
[1] = molecular target: T1, Ac-YVAD-AMC (model substrate, from Enzo, Inc.)
T1 chain: YVAD

[2] = molecular target: alpha-synuclein (wild-type, full-length human α-synuclein)

B1: caspase-1 (ICE), purified, activated (protein)
chain: NPAMPTSSGSEGNVKLCSLEEAQRIWKQKSAEIYPIMDKSSRTRLALIICNEEFDSIPRRTGAEVDITGMTMLLQNLGYSVDVKKNLTASDMTTELEAFAHRPEHKTSDSTFLVFMSHGIREGICGKKHSEQVPDILQLNAIFNMLNTKNCPSLKDKPKVIIIQACRGDSPGVVWFKDSVGVSGNLSLPTTEEFEDDAIKKAHIEKDFIAFCSSTPDNVSWRHPTMGSVFIGRLIEHMQEYACSCDVEEIFRKVRFSFEQPDGRAQMPTTERVTLTRCFYLFPGH
activity against a model substrate [1]: 110 µM/min/mg | cleavage of alpha-synuclein in vitro (SDS-PAGE and western blotting with anti-synuclein antibody) [2]: Purified, activated caspase-1 does indeed cleave alpha-synuclein
